From a protein production outcome set (Wang et al. 2014)

Assay: label from the status in PepcDB records

Sequence	protein production
MSLQVEGLSINLATIREQCGFAEAVDICLKHGITAIAPWRDQVAAIGLGEAGRIVRANGLKLTGLCRGGFFPAPDASGREKAIDDNRRAVDEAAELGADCLVLVAGGLPGGSKNIDAARRMVVEGIAAVLPHARAAGVPLAIEPLHPMYAADRACVNTLGQALDICETLGPGVGVAIDVYHVWWDPDLANQIARAGKMKAILAHHICDWLVPTKDMLTDRGMMGDGVIDLKGIRRRIEAAGFHGAQEVEIFSADNWWKRPADEVIATCVERYRNEGHHHHHH	not failed
MSLREVALKILIVEDDTDAREWLSTIISNHFPEVWSAGDGEEGERLFGLHAPDVIITDIRMPKLGGLEMLDRIKAGGAKPYVIVISAFSEMKYFIKAIELGVHLFLPKPIEPGRLMETLEDFRHIKLAKEGHHHHHH	not failed
MSLRGSQLGTSRGLMLGGIDLAPVLMVLGLLLSGLGLSMLAPALVDLVVENRDWRAFLGSSVITLFCGMMLTLANWRMPLRFNIRQGFLMTALAWLTMSLFGSMPFMLATTGLDFAGAFFESVSGLTTTGATVISGLEHQPPGILFWRCLLHWIGGIGIIGMAIALLPALRVGGMQLFRTESSDTSEKGMNRIGELGLAITAVYLTLTVVIALGYIAVGMSVFDAICHAFGTVSTGGFSNWDTSLGHLDAAGLWMSTVGMMLGAMPFVLYVQVARGRPMDVVRDPQVQALTGFLVACWLVMALWQSLENGRPFLDALTASAFNITSVVTTTGYASEDYTLWGGFPQLFFFMITFAGGCTGSTSGGIKMFRYQVAYKVLSANIRRRYMPNAVIVSTYGGRAIDEDVAVSVVLFFFATGATTAIIALALTMVGLDWVTALTGTAAAIANVGPGLGTIVGPAGNYATLPDSAKWLLSLAMLMGRLEFFTLLVLFSRDFWKS	failed
MSLSALESSSRFEVRYFFERALECYKPFSDTVLLLPCTARKPYLTSRTHRALRSKVKVNVNEIIISSPLVVPREFELLYPAVNYDTPVTGHWSEEEVSFVAGWLKRFIEKGGFRKVVAHVTGGYRKVVERVEDEVEAEVVYTAEKDVLSDESIERLKQEIESKGKVDLYRRILEHMLSYQFGITWSGKVAGRYPELELLEGKKRLARVDRIYGMLDIYEKIAAYLLEKNIYTVEIGDFEVKGTIFAGGVLRADEKIRPNDVVVFHNSRIFGVGLAAMSGKEMAGSEKGIAINVKRKFSEGHHHHHH	not failed
MSLSASLGATRFRPDLLSLDDLDEAQLHALLTLAHQLKRGERVANLHGKVLGLVFLKASTRTRVSFTVAMYQLGGQVIDLSPSNTQVGRGEPVRDTARVLGRYVDGLAIRTFAQTELEEYAHYAGIPVINALTDHEHPCQVVADLLTIRENFGRLAGLKLAYVGDGNNVAHSLLLGCAKVGMSIAVATPEGFTPDPAVSARASEIAGRTGAEVQILRDPFEAARGAHILYTDVWTSMGQEAETQHRLQLFEQYQINAALLNCAAAEAIVLHCLPAHRGEEITDEVMEGPRSRIWDEAENRLHAQKAVLAALMGGREGHHHHHH	not failed
MSLSDRVKKIESFTLTLPRETPYLGKPRPGEEPNGRGYLVRKANRTVYPTFDRSVLVRIETENGAVGWGETYGLVAPRATMEIIDDLLADFTIGRDPFDAAAIHDDLYDLMRVRGYTGGFYVDALAAIDIALWDLAGKLAGLPVCKLLGGQRRDRIAAYISGLPEDTRAKRAELAAAWQAKGFSSFKFASPVADDGVAKEMEILRERLGPAVRIACDMHWAHTASEAVALIKAMEPHGLWFAEAPVRTEDIDGLARVAASVSTAIAVGEEWRTVHDMVPRVARRALAIVQPEMGHKGITQFMRIGAYAHVHHIKVIPHATIGAGIFLAASLQASAALANVDCHEFQHSIFEPNRRLLVGDMDCLNGEYVVPTGPGLGVEPSKEAQGLLKKHEGHHHHHH	not failed
MSLSELSPCHVRSGRIMTVDGPIPSSALGHTLMHEHLQNDCRCWWNPPQEPERQYLAEAPISIEILSELRQDPFVNKHNIALDDLDLAIAEVKQFAAVGGRSIVDPTCRGIGRDPVKLRRISAETGVQVVMGAGYYLASSMPETAARLSADDIADEIVAEALEGTDGTDARIGLIGEIGVSSDFTAEEEKSLRGAARAQVRTGLPLMVHLPGWFRLAHRVLDLVEEEGADLRHTVLCHMNPSHMDPVYQATLAQRGAFLEFDMIGMDFFYADQGVQCPSDDEVARAILGLADHGYLDRILLSHDVFVKMMLTRYGGNGYAFVTKHFLPRLRRHGLDDAALETLMVTNPRRVFDASIEGHHHHHH	not failed
MSLSGPRVERLEVSAYTVPTDYPESDGTLQWDSTTMILVEAHGGGRKGLGYTYGDVSVGRFVESKLAGVAEGSDALSPPAVWARMQAAIRNAGRPGVGAMAVSAVDIALWDLKARLLGLPLADALPRFHAEVPVYGSGGFTSYPLRRLQEQLGGWAAAGIPRVKMKVGREPEKDPERVRAAREAIGESVELMVDANGAYTRKQALYWAGAFAREAGISYLEEPVSSEDREGLRLLRDRGPGGVAIAAGEYEWTLPQLHDLAGCVDILQADVTRCGGITGLLRVDGICRGHQIPFSAHCAPAVSAHACCAVESLLHLEYFHDHARVERLLFDGTLDPEGGSLRPDPDRPGLGLELKRSEAGKYAAEGHHHHHH	not failed
MSLSGTLIGAAAGGTVGLVASIYRDSKRKIIRDLQKQDIQYVEYGDTRTLIIPTDKYFMFSSPRLNEICYPGLNNVIRLLNFYPQSTIYVAGFTDNVGSRSHKRKLSQAQAETMMTFLWANGIAAKRLKAEGYGDKNAISDNAIIHGSAQNRRIEIQWFTSEGHHHHHH	not failed
MSLSGVSHVSLTVRDLDISCRWYTEILDWKELVRGRGDTTSFAHGVLPGGLSIVLREHDGGGTDLFDETRPGLDHLSFSVESMTDLDVLEERLAKAGAAFTPTQELPFGWILAFRDADNIALEAMLGREGHHHHHH	not failed
MSLSIVENGRKLESTIDFSRFAQEIKQNGWKIMLAGLIVAVVAYPLISMITPKYVSTATVLLKAQQDNVSPLPQVDGYDSTRSGYYETQYALMQSRIVLEQAVRDIKLDQNPAFNGDTDKNADHRGDEQQRVDHALDSIVKNLTITGVRTTHLATISYESASPELAADIANGAAQAFIDYTARQKHLKTLKAKALNQKQMEEVWQQVVEQQAAIDQFLKKEGLLTFRGVDGFETEQLGIVTTKLADATQRRIRAETNDNSVRSNAGTSLENIISLPDISNHAQIQDLRIALIQARRSLYDLRKRYGVKHTKILEAEAQVQAIEEQTHTVLLELKAGLNKQYQAALRDEKYYQQLLEQQKVDFQTLASKRDEYNNLTTALNKTKELYKALYQRTKEQTLAGNYLEPDAILYDPAVPADHPSKPNKAMLLVMVVMLTLIFSVVYFIVRAALDNSINSISQMKKRLNVAPVGEIRTFASGVERSKVVRLITKAPLDVDIVHSMRTHILLSHPSCQAIAISSAEHGEGRSLLAHLLARSFSADQKTLLIDLDFFNDGGLTQDLANPSAIGVAELLQGQSPLDAALVIISENLSFLPRGNAVMSSLLMLSSEHVVTLMAELRTRYQRIIVDVAAVNQTQDSQLISRVIDGVVFVLKAGEWRAGDVLNAIDKVKQHRAVLIGAVMNRVADKNLETKEGIRSLNHRMNALINSTGHL	failed
MSLSRPLLFALTALSLTAASLAHAADKKAADKPAPSAVSKADKALHDKFLTLDTHLDTPAHFGRPGWDIADHHEVEHDFSQVDLPRMNQGGLDGGFFVVYIGQGELTEKGYTYARDYALHRTIEIREMLAANPDTFEMALTSDDARRIAKAGKKFAFVSMENSWPVGEDLSLVETFYKEGLRMAGPVHFRNNQLADSSTDPKGKIWNGYSPLGLRWLAEANRLGIVIDVSHASDDVVDQSVALSKAPIIASHSGPKAVYDHPRNLDDARLKKIADAGGAICINSIYLTDTTPSPERKAALEALGRAPDMKTATPEAVKAYADKRAAIDKAHPAARGDFDLYMKSMLHVLKVAGPKGVCVGADWDGGGGMDGFEDITDLPKITARLKAEGYSDADIEAIWSGNVLRIVDAAQAYAKSVTKEGHHHHHH	not failed
MSLSSEVVLMKPYEKLVERFNEMAAEFLSYFPTVKSVGNLESELDKRRFVILFRAMLRLRNEVKGYNEFDAEDLTIEEQRFADYQSKYLDMSNEFAITSEKEDAESILQDIDFELELVHRDIINVMYILALLQDLKPESSSYPKDRKAVLDTMDSNPELRSKIALIDNFIKLHIDGRQSNDLPADMESDLDKYIATQKAIAIEQVATEEGIDSTLLHEYISEYEYLGKPKNEGHHHHHH	not failed
MSLSVLDAPASQPCCPTGVTPEPSSRGPSARRVALLLAGALVAWIVAYAAAHPLSRWLTFGLLGLAEGSHLGESLAFFLYDVPKVLLLLTLIVFLVGIVRSFFTAERTRAILVGKRESVGNVVAALLGVVTPFCSCSAIPLFLGFVEVGVPLGVTFSFLVSAPMVNEVALVLLLGLFGWKVAALYLVTGLTIAILAGFVLGRMKLERHVEPWVYESMKGEARFEKEHLGFAGRVERGLQAVREVVGKVWPWVVAGIAVGAGIHGYVPEGLLASFMGKSAWWSVPAAVALGVPMYSNAAGIIPVVEALLGKGAALGTVLAFMMAVIGLSLPEIVILRKVLRPPLILAFVGVVASGILLVGWLFNAVL	failed
MSLSVTIVMIEDDLGHARLIEKNIRRAGVNNEIIAFTDGTSALNYLFGDDKSGRVSAGRAQLVLLDLNLPDMTGIDILKLVKENPHTRRSPVVILTTTDDQREIQRCYDLGANVYITKPVNYENFANAIRQLGLFFSVMQVPETEGHHHHHH	not failed
MSLTAIHRPTWVSVDLDAAAHNLQEIREWTKAKKVYAVLKADGYGLGAIPLAKAFQETASADALIVSNLDEALELRQADLTLPIWVLGAWDYSDLKLFIDHDIVITIPSLAWLQNLPDFEGTLKVSLAIDTGMTRIGFDKADEISAAKKIIDKNPQLDLFSVYTHFATADEAGEKSKAYFEEQLRRWQELTINQGFDPSLFSMANSATCIWHHDDPRISFAAIRPGQLISGVNVSNGELKMPPNLHLERIFSVCSEIADVRFVKKDQSLSYGASERMPEDGYVATLPFGYNDGWLRRMQKSSVIINGKRMPIIGRITMDQTMVKLDRKYPIGTRVTLIGKDGGEQITVEEVANYSHTIVDEIQTTLAPRIKRIYTGDLAEVIGANYGEGHHHHHH	not failed
MSLTGTDFHVGIVGLGSMGMGAARSCLRAGLSTWGADLNPQACANLLAEGACGAAASAREFAGVVDALVILVVNAAQVRQVLFGEDGVAHLMKPGSAVMVSSTISSADAQEIAAALTALNLNMLDAPVSGGAVKAAQGEMTVMASGSEAAFTRLKPVLDAVASNVYRISDTPGAGSTVKIIHQLLAGVHIAAAAEAMALAARAGIPLDVMYDVVTHAAGNSWMFENRMQHVVDGDYTPRSAVDIFVKDLGLVADTAKALRFPLPLASTALNMFTSASNAGYGKEDDSAVIKIFSGEGHHHHHH	not failed
MSLTKYHDLKNKVIVIAGGIKNLGALTAKTFALESVNLVLHYHQAKDSDTANKLKDELEDQGAKVALYQSDLSNEEEVAKLFDFAEKEFGKVDIAINTVGKVLKKPIVETSEAEFDAMDTINNKVAYFFIKQAAKHMNPNGHIITIATSLLAAYTGFYSTYAGNKAPVEHYTRAASKELMKQQISVNAIAPGPMDTSFFYGQETKESTAFHKSQAMGNQLTKIEDIAPIIKFLTTDGWWINGQTIFANGGYTTREGHHHHHH	not failed
MSLTSSAELAEVDTLARSLLLYRSRLSEYAHANPGFSGSPADSALGLPAWFRKPVRLQGYIAAGTSYAFIASPPAGLAAAVDAGTESDLVGVRRNGQLVTRRLGAIAIALPAPIPEGAVVAVKEGHHHHHH	not failed
MSLTSTATDSPLKYYDIGLNLTDPMFHGIYNGKQYHPADYVKLLERAAQRHVKNALVTGSSIAESQSAIELVSSVKDLSPLKLYHTIGVHPCCVNEFADASQGDKASASIDNPSMDEAYNESLYAKVISNPSFAQGKLKELYDLMNQQAKPHDTSFRSIGEIGLDYDRFHYSSKEMQKVFFEEQLKISCLNDKLSSYPLFLHMRSACDDFVQILERFVVGFTDEKDTFQLQKLGASSSSGFYKFHPDRKLVVHSFTGSAIDLQKLLNLSPNIFIGVNGCSLRTEENLAVVKQIPTERLLLETDAPWCEIKRTHASFQYLAKYQEVRDFEYPAFKSVKKNKLADKLNAEELYMVKGRNEPCNMEQVAIVVSEVKDVDLATLIDTTWKTTCKIFGEGHHHHHH	not failed
